From US10501549B2, “Methods of inhibiting pathological angiogenesis with doppel-targeting molecules” (SEOUL NATIONAL UNIVERSITY R&DB FOUNDATION, priority 2015, dated 2019)

Columns and labels:
VEGFR2 [1] = experiment: VEGF-induced VEGFR2 phosphorylation in HUVECs in presence of rDPl; format: cell-based, human; details: in the presence of rDPl
HUVEC spheroids [2] = experiment: HUVEC spheroid sprouting with VEGF and rDPl; format: cell-based, human; details: co-treated with VEGF, different concentrations rDPl
Experimental: To test this hypothesis, HUVEC spheroids were treated with VEGF in the presence or absence of rDPl. VEGF promoted HUVEC spheroid sprouting; the sprouting was augmented when co-treated with different concentrations rDPl and in Hu.dpl spheroids (FIG. 27A).

HUVEC spheroids [3] = experiment: HUVEC spheroids implanted in Matrigel-fibrin gel in vivo; design: species or system SCID mice; details: VEGF and rDPl-treated HUVEC spheroids
Text: HUVEC spheroids in vivo were implanted in Matrigel-fibrin gel in the presence of doppel and VEGF following an established protocol (see Alajati et al., Nat Methods. 5:439-445 (2008) and Laib et al., Nat Protoc. 4:1202-1215 (2009)); Hu.dpl spheroids were used to compare. […] In contrast, the presence of VEGF and rDPl generated a complete and perfused vascular bed in the Matrigel-fibrin gel. […] These findings support that rDPl enhances angiogenesis in tumor.

EL4 tumor = experiment: Rescue of EL4 tumor growth in Dpl+/− KO mice by rDPl; format: in vivo, Dpl+/− KO C57BL/6 mice
Experimental: To rescue angiogenesis and growth of tumor, Dpl^+/− KO mice were treated with intravenous injection of 1 mg/kg of rDPl three times after the 4th day of EL4 tumor inoculation. EL4 cells were also inoculated with 1 and 10 μg of rDPl in a mixture with 50 μL of Matrigel, in Dpl^+/− KO mice and grown for 10 days.

TEC spheroids = experiment: TEC spheroid sprouting; format: cell-based, mouse
Experimental: The spheroid-based in vivo angiogenesis assay was performed according to a published procedure. Briefly, 8×10^6 TECs or TEC^−/−dpl were suspended in […] media containing 20% methocel solution and 80% culture medium. Cells were divided into non-adherent plastic square petri dishes, 25 μL for each spheroid. Spheroids formed by TECs or TEC^−/−dpl were harvested and mixed in a matrigel/fibrin mixture that contained mouse VEGF and bFGF. TECs or TEC^−/−dpl spheroids (1000 spheroids per plug) were inoculated subcutaneously in the flank of each female SCID mouse (5-6 weeks, Jungang Animal Lab, Korea) or female Balb/c nude mice (Orinet bio, Seongnam, Korea). The spheroids were allowed to grow for 3 weeks. Cy5.5-labeled LMWH, at a dose 2.5 mg/kg, was injected intravenously, and at 2 hours after injection, its accumulation at the site of TEC implantation was checked using Optimax-MX3 (GE Medical Systems, Milwaukee, Wis.). In other experiments, Cy5.5-labeled LHbisD4, at a dose 10 mg/kg, was administered orally, and its distribution was also checked as described previously. The matrix plug was removed and part of the plugs was analyzed for microvessel density and drug accumulation by immunofluorescence staining.
Custom made murine anti-doppel mAbs were acquired and tested for recognition of mouse doppel present in host-derived blood vessels of tumors, ability to block doppel function in vitro, and ability to arrest tumor growth. The selection strategy involved screening for binding with mouse doppel using ELISA and testing for ability to detect doppel protein in TEC lysates using western blot. Six independent clones (7D9, 1B12, 1C8, 5C7, 4D6, and 6F11) were identified. Of the six clones, 5C7 and 4D6 abrogated mouse VEGF (mVEGF)-induced sprouting of TEC spheroids (FIG. 20A, B).

VEGFR2 [4] = experiment: mVEGF-induced VEGFR2 phosphorylation in TECs (immunoblot); format: cell-based, mouse; details: purified clones
CT26 colon cancer = CT26 colon cancer model, tumor growth and angiogenesis; format: in vivo, mice; details: for tumor volume and weight: intravenous 5 and 10 mg/kg, compared to saline and control IgG; for reduction of tumor growth: intravenous
Experimental: Based on the in vitro data, clones 4D6 and 5C7 were selected to study the anti-tumor and anti-angiogenic effect of in a murine-derived CT26 colon cancer model. When the tumors reached an average size of 50 mm^3, the mice were treated with intravenous doses of 5 and 10 mg/kg 4D6 and 5C7 mAb clones. […] When administered at a dose of 10 mg/kg once or twice a week, 4D6 mAb reduced the tumor growth by 71.1±4.2% or 87.9±3.9%, respectively.

[5] = Preliminary safety observations in treated tumor-bearing mice; format: in vivo
VEGFR2 [6] = experiment: VEGFR2 dimerization/clustering in Hu.dpl cells (proximity ligation assay, western blot); format: cell-based, human
Text: The effect of doppel on VEGFR2 dimerization in the absence of VEGF was investigated. In situ proximity ligation assay (PLA) was used to see VEGFR2 homodimers/clusters in intact cells (FIG. 22G, H). […] It was observed that the dynamics between VEGFR2 monomer-dimer using western blot (FIG. 28A). In HUVECs, the prominent 125 kDa and a relative weaker 250 kDa band appeared as VEGFR2 monomer and dimer, respectively. In Hu.dpl cells, VEGFR2 was detected at 250 kDa band in immunoblots.

doppel = doppel (Mus musculus, UniProt Q9QUG3); experiment: Epitope mapping; format: binding; details: doppel peptide mapping
Text: (The same sequence appears in both mouse and human doppel.) FIG. 32 discloses SEQ ID NOS 63-98, respectively, in order of appearance, in the x-axis of the graph and SEQ ID NO: 11 in the body of the graph.
(The corresponding sequence in human doppel is FPDGIH (SEQ ID NO: 61).) FIG. 33 discloses SEQ ID NOS 63-98, respectively, in order of appearance, in the x-axis of the graph and SEQ ID NOS 99-102, 12 and 103-104, respectively, left to right, in order of appearance, in the body of the graph.

[7] = system: HCT116 human colon cancer; experiment: HCT116 human colon cancer mouse xenograft; format: in vivo, mice
Text: The antitumor effect of 4D6 mAb was also observed in HCT116 human colon cancer mouse xenografts. 4D6 mAb inhibited tumor growth (FIG. 19C, D), doppel- and CD31-positive tumor vessels (FIG. 19E), and mean tumor blood vessels density commensurately with dose and dosing frequency (FIG. 19F, G).

[8] = mVEGF-induced, cell supernatants of clones
[9] = purified clones, different concentrations

| epitope bound (doppel) | Molecule | VEGFR2 phosphorylation by VEGF (VEGFR2 [1]) | HUVEC spheroid sprouting (HUVEC spheroids [2]) | hemoglobin content of spheroid plugs (HUVEC spheroids [3]) | growth of tumors (EL4 tumor; EL4 cells inoculated with 1 and 10 μg of rDPl in Matrigel) | localization in tumor tissues (EL4 tumor; intravenously injected rDPl) | sprouting of TEC spheroids (TEC spheroids; [8]) | sprouting of TEC spheroids (TEC spheroids; [9]) | VEGFR2 phosphorylation in TECs (VEGFR2 [4]) | tumor volume and weight (CT26 colon cancer) | body weight [5] | clinical chemistry or hematological blood profile [5] | organ pathology upon inspection and histological analysis [5] | VEGFR2 dimerization/clustering (VEGFR2 [6]; Hu.dpl cells, in situ PLA) | VEGFR2 band in immunoblot (VEGFR2 [6]; treated Hu.dpl cells, untreated Hu.dpl 250 kDa (dimer)) [kDa] | reduction of tumor growth (CT26 colon cancer; 10 mg/kg once a week) [%] | reduction of tumor growth (CT26 colon cancer; 10 mg/kg twice a week) [%] | doppel- and CD31-positive tumor vessels and mean tumor blood vessels density ([7]; commensurately with dose and dosing frequency) | tumor growth ([7]; intravenous 5 and 10 mg/kg once a week, 10 mg/kg twice a week) |
| --- | --- | --- | --- | --- | --- | --- | --- | --- | --- | --- | --- | --- | --- | --- | --- | --- | --- | --- | --- |
| – | rDPl: recombinant doppel (rDPl) protein | robustly and dose dependently increased | augmented | higher than control and VEGF-treated spheroids | dose dependently rescued | concentrated and colocalized with VEGFR2- and CD31-positive vessels | – | – | – | – | – | – | – | – | – | – | – | – | – |
| FPDGIY | 5C7: murine anti-doppel mAb of hybridoma clone 5C7; VL SEQ ID NO: 53, VH SEQ ID NO: 59 (antibody, V domains shown) VH: QVQLQQSGTELVRPGSSVKISCKASGYAFSSHWMNWVKQRPGQGLEWIGQIYPRNGDTNYNGKFKGKATLTADKSSSTAYMQLSSLTSEDSAVYFCSRSTTIVTTGAYWGQGTLVTVSA VL: DIQMTQSPSSLSASLGERVSLTCRASQEISGYLSWLQQKPDGTIKRLIYAASILDSGVPKRFSGSRSGSDYSLTISSLESEDFADYYCLQYASYPFMFGAGTKLELKR | – | – | – | – | – | abrogated | dose-dependently prevented | dose-dependently prevented | markedly regressed | no changes | no alteration | no obvious organ pathology | severely compromised | 125 | – | – | – | – |
| YWQFPD | 4D6: murine anti-doppel mAb of hybridoma clone 4D6; VL SEQ ID NO: 49, VH SEQ ID NO: 55 (antibody, V domains shown) VH: QVQLHQSGSELARPGASVKLSCKASGYTFTNYWMQWVKQRPGQGLEWIGAIYPGDGNTRYSQKFKGKATLTADKSSSTAYMQLSSLASEDSAVYYCARRDYGSSYWYFDVWGAGTTVTVSS VL: DVLMTQTPLSLPVSLGDQASISCRSSQSIVHSNGNTYLEWYLQKPGQSPKLLIYKVSNRFSGVPDRFSGSGSGTDFTLKISRVEAEDLGVYYCFQGSHVPLTFGAGTKLELKR | – | – | – | – | – | abrogated | dose-dependently prevented | dose-dependently prevented | markedly regressed | no changes | no alteration | no obvious organ pathology | – | – | 71.1±4.2 | 87.9±3.9 | inhibited | inhibited |
